Assay results published in patent US20070292447A1.

Target: CS40 anti-ManLAM monoclonal antibody
Experiment: competitive ELISA, ManLAM-coated plate, CS40 mixed with peptide; at 50 µg/ml peptide

B1: B11 synthetic peptide (…) (peptide)
peptide: ISLTEWSMWYRH
**Q.** With B1 as the binder, how does the decrease in OD (inhibition of CS40 binding to ManLAM) read?
**A.** 100%
